doi:10.1101/2024.04.17.589974 (bioRxiv, 2024)

Key:
[1] = target: T1, Y685F-VE-cadherin (knock-in mutant, mouse) (mouse (endogenous in lung of C57BL/6 …, UniProt P55284 46-784, Y685F)); assay: co-IP
T1 sequence (looked up): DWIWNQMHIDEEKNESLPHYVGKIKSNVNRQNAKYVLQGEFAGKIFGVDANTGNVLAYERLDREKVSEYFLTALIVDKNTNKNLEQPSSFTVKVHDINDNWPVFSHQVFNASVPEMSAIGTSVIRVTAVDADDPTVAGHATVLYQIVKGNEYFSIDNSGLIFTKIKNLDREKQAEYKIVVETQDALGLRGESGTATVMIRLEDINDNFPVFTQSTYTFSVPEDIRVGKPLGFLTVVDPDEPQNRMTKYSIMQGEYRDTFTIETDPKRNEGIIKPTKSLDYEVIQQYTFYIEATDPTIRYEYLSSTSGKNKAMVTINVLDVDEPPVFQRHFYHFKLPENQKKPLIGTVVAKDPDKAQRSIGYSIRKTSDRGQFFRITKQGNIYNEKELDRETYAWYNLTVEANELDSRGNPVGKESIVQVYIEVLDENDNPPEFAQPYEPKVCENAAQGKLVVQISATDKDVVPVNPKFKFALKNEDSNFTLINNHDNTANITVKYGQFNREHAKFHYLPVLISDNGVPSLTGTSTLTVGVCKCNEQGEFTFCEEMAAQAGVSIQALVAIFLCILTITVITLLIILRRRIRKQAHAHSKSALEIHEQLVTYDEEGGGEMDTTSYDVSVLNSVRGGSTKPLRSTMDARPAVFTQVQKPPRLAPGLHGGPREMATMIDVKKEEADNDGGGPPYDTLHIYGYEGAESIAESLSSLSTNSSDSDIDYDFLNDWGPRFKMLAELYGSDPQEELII

[2] = target: T2, VE-cadherin (wild type, mouse) (mouse (endogenous in lung of C57BL/6 …, UniProt P55284 46-784)); assay: co-IP
T2 sequence (looked up): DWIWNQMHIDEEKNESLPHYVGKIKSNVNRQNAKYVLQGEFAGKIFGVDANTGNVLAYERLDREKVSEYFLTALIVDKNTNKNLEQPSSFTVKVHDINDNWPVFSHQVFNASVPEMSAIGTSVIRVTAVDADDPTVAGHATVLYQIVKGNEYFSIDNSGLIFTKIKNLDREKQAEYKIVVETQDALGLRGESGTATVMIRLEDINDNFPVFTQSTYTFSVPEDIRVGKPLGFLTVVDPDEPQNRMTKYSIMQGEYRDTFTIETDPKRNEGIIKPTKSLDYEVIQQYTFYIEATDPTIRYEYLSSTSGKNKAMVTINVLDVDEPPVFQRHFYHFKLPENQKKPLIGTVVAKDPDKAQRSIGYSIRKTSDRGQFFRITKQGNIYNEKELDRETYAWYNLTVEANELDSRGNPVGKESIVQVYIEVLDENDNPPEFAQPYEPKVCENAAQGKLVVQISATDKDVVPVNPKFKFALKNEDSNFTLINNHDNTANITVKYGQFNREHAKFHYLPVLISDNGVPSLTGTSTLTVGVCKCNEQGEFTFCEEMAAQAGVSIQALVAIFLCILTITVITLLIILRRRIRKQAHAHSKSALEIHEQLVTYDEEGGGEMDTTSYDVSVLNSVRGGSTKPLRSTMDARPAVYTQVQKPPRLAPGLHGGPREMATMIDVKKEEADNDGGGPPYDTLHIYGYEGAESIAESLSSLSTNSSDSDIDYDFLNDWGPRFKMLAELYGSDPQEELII

β-catenin/VE-cadherin ratio in the VE-cadherin immunoprecipitate (densitometry) [1]: 0.798
β-catenin/VE-cadherin ratio in the VE-cadherin immunoprecipitate (densitometry) [2]: 1.14
B1: β-catenin (natural protein, UniProt Q02248 1-781, looked up)
chain: MATQADLMELDMAMEPDRKAAVSHWQQQSYLDSGIHSGATTTAPSLSGKGNPEEEDVDTSQVLYEWEQGFSQSFTQEQVADIDGQYAMTRAQRVRAAMFPETLDEGMQIPSTQFDAAHPTNVQRLAEPSQMLKHAVVNLINYQDDAELATRAIPELTKLLNDEDQVVVNKAAVMVHQLSKKEASRHAIMRSPQMVSAIVRTMQNTNDVETARCTAGTLHNLSHHREGLLAIFKSGGIPALVKMLGSPVDSVLFYAITTLHNLLLHQEGAKMAVRLAGGLQKMVALLNKTNVKFLAITTDCLQILAYGNQESKLIILASGGPQALVNIMRTYTYEKLLWTTSRVLKVLSVCSSNKPAIVEAGGMQALGLHLTDPSQRLVQNCLWTLRNLSDAATKQEGMEGLLGTLVQLLGSDDINVVTCAAGILSNLTCNNYKNKMMVCQVGGIEALVRTVLRAGDREDITEPAICALRHLTSRHQEAEMAQNAVRLHYGLPVVVKLLHPPSHWPLIKATVGLIRNLALCPANHAPLREQGAIPRLVQLLVRAHQDTQRRTSMGGTQQQFVEGVRMEEIVEGCTGALHILARDVHNRIVIRGLNTIPLFVQLLYSPIENIQRVAAGVLCELAQDKEAAEAIEAEGATAPLTELLHSRNEGVATYAAAVLFRMSEDKPQDYKKRLSVELTSSLFRTEPMAWNETADLGLDIGAQGEALGYRQDDPSYRSFHSGGYGQDALGMDPMMEHEMGGHHPGADYPVDGLPDLGHAQDLMDGLPPGDSNQLAWFDTDL
